Numbering of substitutions follows the chain as printed. In names and notes the source's numbering stands.
B1: 6G heavy chain variant 7D (N101C) (antibody, V domains shown)
VH: QVQLVQSGAEVKKPGASVKVSCKASGYTFTTYAIHWVRQAPGQGLEWMGFTSPYSGVSNYNQKFKGRVTMTRDTSTSTVYMELSSLRSEDTAVYYCARFDCYDRGYVRDYWGQGTLVTVS
VL: DIVMTQSPDSLAVSLGERATINCRASESVDNDRISFLNWYQQKPGQPPKLLIYAATKQGTGVPDRFSGSGSGTDFTLTISSLQAEDVAVYYCQQSKEFPWSFGGGTKVEIKR
B2: 6G light chain variant 7E (Q94R) (antibody, V domains shown)
VH: B1 VH with C101N
VL: B1 VL with Q94R
B3: 6G light chain variant 10E (S95L) (antibody, V domains shown)
VH: B1 VH with C101N
VL: B1 VL with S95L
B4: 6G light chain variant 7F (Q94K) (antibody, V domains shown)
VH: B1 VH with C101N
VL: B1 VL with Q94K
B5: 6G light chain variant 5B (Q94G) (antibody, V domains shown)
VH: B1 VH with C101N
VL: B1 VL with Q94G
B6: 6G light chain variant 6E (E97P) (antibody, V domains shown)
VH: B1 VH with C101N
VL: B1 VL with E97P
B7: 6G heavy chain variant 8H (N101H) (antibody, V domains shown)
VH: B1 VH with C101H
VL: B1 VL
B8: 6G heavy chain variant 9E (N101R) (antibody, V domains shown)
VH: B1 VH with C101R
VL: B1 VL

molecular target: Aβ1-42 peptide; experiment: ELISA, nonbiotinylated peptide on plate
Sequence (peptide, as listed by the source): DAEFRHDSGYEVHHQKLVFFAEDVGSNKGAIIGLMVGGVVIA

Binder | A450 ELISA [A450]
B1 | 0.31
B2 | 0.18
B3 | 0.12
B4 | 0.19
B5 | 0.14
B6 | 0.2

molecular target: Aβ1-40 peptide; experiment: ELISA, nonbiotinylated peptide on plate
Sequence (peptide, as listed by the source): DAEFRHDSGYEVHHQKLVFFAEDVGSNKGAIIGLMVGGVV

Binder | A450 ELISA [A450]
B1 | 0.23
B7 | 0.21
B8 | 0.22

Reference: patent US20090022728A1
